Source: PMC5180188, “Structural Insights on PHA Binding Protein PhaP from Aeromonas hydrophila” (Scientific Reports, 2016)

Target: the molecule itself
Test: SEC + other: dynamic light scattering; Superdex 200 in 50 mM Tris pH 8.0, 500 mM NaCl; DLS at 0.5 mg/ml in aqueous buffer

B1: PhaPAh (PHA binding protein PhaP, a phasin, from Aeromonas hydrophila strain 4AK4) (natural protein, UniProt O32470 1-116, looked up)
chain: MNMDVIKSFTEQMQGFAAPLTRYNQLLASNIEQLTRLQLASANAYAELGLNQLQAVSKVQDTQSLAALGTVQLETASQLSRQMLDDIQKLSALGQQFKEELDVLTADGIKKSTGKA
notes: PhaP (phasin) of Aeromonas hydrophila strain 4AK4, UniProtKB O32470, residues 1-116; called full-length in the methods; Cloned in pGEX-6P-1; residues left by PreScission cleavage are not described; Phasing used a (Ta6Br12)2+ soaked crystal and a selenomethionine-labelled crystal; the final model is of the native crystal; also called wild type; wild-type PhaPAh; not shown: GST, N-terminal, cleaved
- stoichiometry N: 4
